Data as given in the supplement of paper PMC10126150.
± gives the standard deviation of the averaged measurements.

Tested on: ATP
Assay: switch fluorescence ratio, 500 uM ATP over buffer (Cy3 cluster intensity, sum of 5 cycles each) (fold (ratio)); higher = stronger signal-on switching upon ATP binding; sequences stand for … in TCGTCGGCAGCGTCAGATGTGTATAAGAGACAGTTTTTTTTTTTTTTTTTTTTTTTTT…TC
Settings: aptamer strand: ATP DNA aptamer (quencher-CACCTGGGGGAGTATTGCGGAGGAAGG + anchor), 100 nM annealed; ATP concentration: 500 uM
Procedure, shortened: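 Values give the fluorescence ratio for each switch-domain sequence, averaged from per-cluster ratios of summed target-cycle to summed buffer-cycle Cy3 intensity. The Cy3-labelled switching-strand clusters sat on a modified Illumina MiSeq flow-cell, were annealed to 100 nM quencher-labelled ATP aptamer, and were imaged in selection buffer, then after 15 min with 500 uM ATP at 22 °C. Five cycles ran with NaOH stripping and re-annealing between them, and clusters outside 100-1000 RFU were excluded.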
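Note: ATP exposure 15 min at 22 °C before imaging.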

Sequence	switch fluorescence ratio
AAAATTCGTA	1.028 ± 0.0022
AAACGGGCGG	0.996 ± 0.045
TTATGAAATT	1.01 ± 0.04
TTCCAGATTT	1.02 ± 0.062
AATAAGTTGT	0.999 ± 0.035
TCTTACGGAC	1.31 ± 0.017
TCAGCGGGAG	1.012 ± 0.0016
TTGCCATGTT	0.978 ± 0.036
ATGGACGGTA	1.105 ± 0.0076
TTTGTGGTTG	0.992 ± 0.032
GCTTTTTAGT	1.006 ± 0.0021
TTTTTTATCG	1 ± 0.031
TCGGGTCCGC	1.06 ± 0.046
TAGCTGGATA	0.9837 ± 0.005
TCGAGATGG	0.97289 ± 7.7e-05
TGCCTGGTAT	0.984 ± 0.019
GCGTTTAGAA	0.987 ± 0.036
ATTGCCCTTA	1.06 ± 0.071
TGTTGTGGTC	0.9804 ± 0.0042
CCATTTACGT	1.04 ± 0.025
CCCTGAGGGA	1.18 ± 0.086
TTGAGTCGGA	1.42 ± 0.7
CGGAGTCGGG	1.04 ± 0.052

Sequence	switch fluorescence ratio
GCCGTTTGTG	1.008 ± 0.0024
CGGATGAGTG	0.953 ± 0.1
ATAATGGTGT	1.03 ± 0.029
TTTTGATCGG	0.982 ± 0.037
GGGTTTAGGG	1 ± 0.045
AATATTACAT	1.03 ± 0.034
ATCAAGGTTC	0.9917 ± 0.0095
GGTGTGGGGC	1.01 ± 0.024
TCGATACATG	0.993 ± 0.034
GGTCGTCTTG	0.996 ± 0.04
GAGGTATGTG	0.997 ± 0.023
ATTTTGTTAG	0.998 ± 0.011
CCCAATTATT	1.016 ± 0.0048
GGTTGTGTGT	1 ± 0.005
ATTGTACAGG	1.033 ± 0.0021
TAGGGGGAAA	1.01 ± 0.024
GGATCCTGGG	0.993 ± 0.022
TGCGTCTATT	1.05 ± 0.078
GGGGGGAGG	1.1 ± 0.13
GGTGACGCTG	0.992 ± 0.031
TAAAATCCGT	0.981 ± 0.011
TTTGGCCAAA	1.05 ± 0.046
TAGGTGTCAT	1.15 ± 0.32

Sequence	switch fluorescence ratio
TCCTCAGCGT	3 ± 1
CTTTGTTATG	0.9909 ± 0.0047
TGATGCTTTG	0.998 ± 0.051
GTGGCATACT	1.12 ± 0.016
ATTGGCTTT	0.9788 ± 0.0025
TCGTAGAGTG	0.954 ± 0.026
CGAGGGGGGA	0.996 ± 0.028
GGGGACACGG	1.03 ± 0.016
CGGGGACTGG	0.9726 ± 0.0072
ATTTGATGAG	0.987 ± 0.045
CGTGAGCTAA	1.41 ± 0.19
GGACACCGGG	1.04 ± 0.015
AGTCAGATGG	0.981 ± 0.025
GACTAATTAA	0.978 ± 0.036
GGTTTTTACG	0.985 ± 0.061
CTGGGTTAGG	0.973 ± 0.032
TGGATGGGGT	0.973 ± 0.027
TAGAAAAATG	0.991 ± 0.029
GTTACATAGC	1.08 ± 0.014
GATTGGTGTT	0.956 ± 0.025
AGGGTGGGTG	1.01 ± 0.024
GGGTTATGCT	0.99 ± 0.046
GGTTGACCTG	1 ± 0.032

Sequence	switch fluorescence ratio
GGGGGCGCGA	1.02 ± 0.035
TTTAGGGTCA	0.962 ± 0.062
CCCGATGAGC	1.05 ± 0.025
GGGGCCAGAA	1.012 ± 0.0029
ATATAAGGGC	1 ± 0.074
TACGATGTGT	1.03 ± 0.039
ATGCCTAGTG	0.994 ± 0.013
ATGTATGGGT	0.992 ± 0.036
GTATTTACTC	1.04 ± 0.034
GATTTAGTTA	1.01 ± 0.027
GGGGTATTTG	0.99 ± 0.012
TCCGGGGGCA	1.59 ± 0.027
AGAACTGGCT	0.988 ± 0.011
CGCTTGGCTG	0.981 ± 0.051
TATTACACGT	1.021 ± 0.0046
ATAGTGGAGA	1.01 ± 0.024
GGACAGTGTA	1.01 ± 0.02
ATAGCTGTTA	0.978 ± 0.05
GACAATTCGG	1.01 ± 0.021
GGTGGAAAAG	1 ± 0.023
TCGAAGGAAT	1.24 ± 0.037
AAAAAGGCTA	1.03 ± 0.017
CTAAGATCGG	1 ± 0.02

Sequence	switch fluorescence ratio
TCAGGGACTT	0.9845 ± 0.0077
TAGTTTCGGC	0.958 ± 0.011
AACAAGGGGA	1.07 ± 0.067
TTTTTCCCCG	1.33 ± 0.6
AAAGGGGAGG	1.01 ± 0.033
ATGGTGTGTG	1.01 ± 0.033
AAGATGAGTA	0.982 ± 0.032
CCGGAAGGGG	1.06 ± 0.02
AGAGGGGTCA	1.01 ± 0.02
CTACCGGATT	1.07 ± 0.012
GCCCTGGGGC	1.013 ± 0.0075
TATAAAAACG	1.11 ± 0.2
AGTTTAATGT	1 ± 0.027
CAGGGGGCGA	1.06 ± 0.07
CACTAGGGGA	1 ± 0.028
TCCAGGCGAA	1.08 ± 0.038
CGTCAGTGCA	1.01 ± 0.024
AAATTTAGGT	1.01 ± 0.038
GTGTAAGAGA	1.006 ± 0.0081
ATAGTAATCT	0.993 ± 0.056
AGAAGTTGCG	0.986 ± 0.0083
AGAGTGGAAG	0.977 ± 0.051
GGCTGATGCA	0.938 ± 0.034

Sequence	switch fluorescence ratio
GCATAAGGGC	0.959 ± 0.033
TGTACTGGGG	1.003 ± 0.0094
TATTTAGCGT	1.01 ± 0.067
TTTTAATCTC	0.979 ± 0.024
TCGGAATTGT	0.9992 ± 0.0056
CATGAGAAGA	0.999 ± 0.029
GGGGGCGGAT	0.992 ± 0.024
CCGAATCCAG	1.111 ± 0.0099
ATGCGTGGGG	1.02 ± 0.029
TTCCTGGGTT	1.002 ± 0.0097
GTTATACGTA	1.03 ± 0.019
TGGGGACCCA	0.991 ± 0.018
GGGGTGCTG	1.02 ± 0.036
AGATGTCCTT	1.02 ± 0.037
GTTTTTTTTC	0.985 ± 0.011
CGTTAAAATA	1.01 ± 0.062
ATCGAAAGGG	1.01 ± 0.054
TGGTGAGGGT	0.999 ± 0.025
ATTCTACCGC	1.49 ± 0.08
AGTATAGAGT	1.01 ± 0.037
CTGGGAAGAG	1.01 ± 0.028
AGCTTAGGTC	1.03 ± 0.029
TGGTGATGGT	1.03 ± 0.058

Sequence	switch fluorescence ratio
TAGGAAATGT	1.07 ± 0.087
AACATTTTAA	0.965 ± 0.04
ACGTAGTGTC	1.03 ± 0.018
TGGTCGGCAA	1.045 ± 0.0081
GGAGGAAATG	0.949 ± 0.011
GTGTAATAGG	0.9713 ± 0.0056
TTTGGCGAAC	1.02 ± 0.02
CAAAGGAAGC	1.02 ± 0.05
TAGTTTTTCT	0.971 ± 0.022
ACAGTATGGA	1 ± 0.011
GTAGGGCATG	0.96 ± 0.026
GGGAATTTTT	1 ± 0.053
TGTTAACGGT	0.991 ± 0.071
TTTTGATCGA	1.03 ± 0.11
GGGTGGGTGG	0.989 ± 0.017
TACACGGGTT	1.01 ± 0.035
TTTATGGAGG	0.991 ± 0.02
CTTTAATGTT	0.988 ± 0.037
TGTTAGGTAG	1.01 ± 0.011
